Substrate in this series: CCCCC(O)CC(=O)C(=O)O
The experiment in a line: purified protein. Format: biochemical, Thermotoga maritima. Conditions: retro-aldol cleavage, HEPES 100 mM pH 7.5, 34 °C.

Where a chain is given by its changes, count along the chain named. Numbers in names are those of the source.

B1: T. maritima KDPG aldolase (wt-TMA; TM KDPG aldolase) (Thermotoga maritima MSB8; N150I) (protein)
chain: MKMEELFKKHKIVAVLRANSVEEAKEKALAVFEGGVHLIEITFTVPDADTVIKELSFLKEKGAIIGAGTVTSVEQCRKAVESGAEFIVSPHLDEEISQFCKEKGVFYMPGVMTPTELVKAMKLGHTILKLFPGEVVGPQFVKAMKGPFPIVKFVPTGGVNLDNVCEWFKAGVLAVGVGSALVKGTPDEVREKAKAFVEKIRGCTE
One may read the Km as the concentration of substrate that gives half-maximal velocity. As usually defined, the kcat is the maximal rate divided by the concentration of active sites. Usually kcat/Km stands for the turnover number divided by the Michaelis constant. Regarding B1, for the setting “mutant TM 8”, the Michaelis constant (Km) is 49 ± 19 mM, the kcat turned out to be 1.2 ± 0.3 s⁻¹ and the kcat/Km is 25 ± 5 M⁻¹ s⁻¹.

B2: T. maritima KDPG aldolase (wt-TMA; TM KDPG aldolase) (Thermotoga maritima MSB8; G34R/R190I/V172A) (protein)
chain: B1 chain with G34R, I150N, V172A, R190I
For the protein B2, for the setting “mutant TM 1”, the Michaelis constant (Km) is on record as 9 ± 2 mM, the kcat is 0.07 ± 0.01 s⁻¹ and the kcat/Km was 9.3 ± 1.8 M⁻¹ s⁻¹.

B3: T. maritima KDPG aldolase (wt-TMA; TM KDPG aldolase) (Thermotoga maritima MSB8; G83E/K9T) (protein)
chain: B1 chain with K9T, G83E, I150N
Regarding B3, where the note is “mutant TM 2”, the Michaelis constant (Km) is 90 ± 20 mM, the kcat was found to be 0.5 ± 0.1 s⁻¹ and the specificity constant (kcat/Km) was 5.5 ± 1 M⁻¹ s⁻¹.

B4: T. maritima KDPG aldolase (wt-TMA; TM KDPG aldolase) (Thermotoga maritima MSB8; I52F/T185A/V135M) (protein)
chain: B1 chain with I52F, V135M, I150N, T185A
For B4, where the note is “mutant TM 6”, the Km came out at 8 ± 3 mM, the kcat was 0.13 ± 0.02 s⁻¹ and the kcat/Km is 17 ± 6 M⁻¹ s⁻¹.

B5: T. maritima KDPG aldolase (wt-TMA; TM KDPG aldolase) (Thermotoga maritima MSB8; A30V) (protein)
chain: B1 chain with A30V, I150N
On to B5, for which, under “mutant TM 5”, the Km was 14 ± 5 mM, the kcat amounted to 0.75 ± 0.1 s⁻¹ and the kcat/Km was 54 ± 10 M⁻¹ s⁻¹.

B6: T. maritima KDPG aldolase (wt-TMA; TM KDPG aldolase) (Thermotoga maritima MSB8; V136M) (protein)
chain: B1 chain with V136M, I150N
Take B6: for the setting “mutant TM 4”, the Km came out at 23 ± 4 mM, the catalytic constant (kcat) amounted to 0.36 ± 0.02 s⁻¹ and the specificity constant (kcat/Km) turned out to be 16 ± 2 M⁻¹ s⁻¹.
